The Kd is the equilibrium constant for the complex coming apart.

Sequences and labels used below:
B1: scFv; the commonest letter at each place (parent)
chain 1: EVKLDETGGGLVQPGRPMKLSCVASGFTFSDYWMNWVRQSPEKGLEWVAQIRNKPYNYETYYSDSVKGRFTISRDDSKSSVYLQMNNLRVEDMGIYYCTGSYYGMDYWGQGTSVTVS
chain 2: DVVMTQTPLSLPVSLGDQASISCRSSQSLVHSNGNTYLRWYLQKPGQSPKVLIYKVSNRFSGVPDRFSGSGSGTDFTLKISRVEAEDLGVYFCSQSTHVPWTFGGGTKLEIK

Some results are limits rather than exact numbers.

In series [1] the parent is B1. Kind of series: Kd (Tite-Seq). To be noted: with fluorescein; format: scFv 4-4-20, heavy + light.
The variants in series [2] derive from B1. The series is described as follows: yeast surface expression (ratio to wild type); higher = more expressed. To be noted: format: scFv 4-4-20, heavy + light.

Take chain 1 S30P D31A Y32H: the dissociation constant (Kd) in series [1] is no less than 10 µM. Besides, the yeast surface expression in series [2] is 0.725.
Turning to chain 1 S30C D31F, the dissociation constant (Kd) in series [1] stood at 5.96 µM. Also, the yeast surface expression in series [2] came out at 0.592.
On to chain 1 N35C V37K, for which the Kd in series [1] is no less than 10 µM. Also, the yeast surface expression in series [2] is 0.542.
The matching figures for chain 1 N35C V37L: no less than 10 µM and 0.527.
The matching figures for chain 1 N35C V37M: no less than 10 µM and 0.689.
The matching figures for chain 1 S30E D31N: 0.000504 µM and 0.934.
As to chain 1 S30E D31S, in series [1], the dissociation constant (Kd) was determined as 0.00239 µM. Further, the yeast surface expression in series [2] turned out to be 0.987.
The matching figures for chain 1 S30R W36G: no less than 10 µM and 0.171.
As to chain 1 N35R, the Kd in series [1] is no less than 10 µM. The yeast surface expression in series [2] was determined as 0.534.
The matching figures for chain 1 N35L: no less than 10 µM and 0.692.
As for chain 1 N35F, in series [1], the Kd was no less than 10 µM. Besides, in series [2], the yeast surface expression turned out to be 0.708.
Take chain 1 N35M: the Kd in series [1] is no less than 10 µM. Also, the yeast surface expression in series [2] came to 0.715.
Consider chain 1 N35C, for which, in series [1], the Kd is no less than 10 µM. The yeast surface expression in series [2] came out at 0.708.
The matching figures for chain 1 N35Q: no less than 10 µM and 0.814.
In the case of chain 1 N35D, the equilibrium dissociation constant (Kd) in series [1] is no less than 10 µM. Moreover, in series [2], the yeast surface expression was 0.922.
In the case of chain 1 N35E, the Kd in series [1] was no less than 10 µM. For the same variant, the yeast surface expression in series [2] came out at 0.802.
The matching figures for chain 1 N35G: 0.0102 µM and 0.989.
Regarding chain 1 N35K, the Kd in series [1] is 0.228 µM. Also, the yeast surface expression in series [2] was found to be 0.806.
The matching figures for chain 1 N35H: no less than 10 µM and 0.793.
On to chain 1 N35Y, for which the Kd in series [1] was no less than 10 µM. In addition, the yeast surface expression in series [2] was 0.697.
For the variant chain 1 N35V, the dissociation constant Kd in series [1] is no less than 10 µM. Besides, the yeast surface expression in series [2] is 0.596.
For the variant chain 1 N35I, the Kd in series [1] was no less than 10 µM. Moreover, the yeast surface expression in series [2] is 0.652.
The matching figures for chain 1 N35P: no less than 10 µM and 0.672.
The matching figures for chain 1 N35T: no less than 10 µM and 0.879.
The matching figures for chain 1 N35S: no less than 10 µM and 1.04.
Consider chain 1 N35W, for which the Kd in series [1] was no less than 10 µM. Further, in series [2], the yeast surface expression was determined as 0.6.
The matching figures for chain 1 N35A W36P: no less than 10 µM and 0.663.
The matching figures for chain 1 S30R W33F M34V: 0.105 µM and 0.767.
Consider chain 1 S30D M34F, for which the Kd in series [1] was determined as 0.00142 µM. Moreover, the yeast surface expression in series [2] stood at 1.22.
chain 1 S30Q Y32V: the Kd in series [1] was no less than 10 µM. Moreover, the yeast surface expression in series [2] was determined as 0.923.
The matching figures for chain 1 S30I D31T W36P: no less than 10 µM and 0.928.
As for chain 1 S30I M34P, the dissociation constant (Kd) in series [1] was no less than 10 µM. Besides, the yeast surface expression in series [2] is 0.36.
The matching figures for chain 1 S30I M34V: 0.0113 µM and 0.753.
The matching figures for chain 1 S30I M34N: no less than 10 µM and 0.512.
Regarding chain 1 S30C M34V, the Kd in series [1] worked out at 0.00827 µM. Also, the yeast surface expression in series [2] worked out at 0.65.
The matching figures for chain 1 S30F W36D: no less than 10 µM and 0.448.
For chain 1 S30E W33Q, in series [1], the dissociation constant (Kd) was no less than 10 µM. Besides, the yeast surface expression in series [2] turned out to be 0.96.
Turning to chain 1 S30E W33K, in series [1], the Kd was no less than 10 µM. Besides, the yeast surface expression in series [2] was 0.771.
The matching figures for chain 1 S30K W33L: no less than 10 µM and 0.749.
For chain 1 N35F W36Q, in series [1], the dissociation constant Kd is no less than 10 µM. In series [2], the yeast surface expression amounted to 0.38.
On to chain 1 S30G W36L, for which, in series [1], the Kd was no less than 10 µM. For the same variant, in series [2], the yeast surface expression stood at 0.597.
With chain 1 S30G W36S, the Kd in series [1] is 1.47 µM. Also, the yeast surface expression in series [2] was 0.275.
For the variant chain 1 S30H D31S N35P, the Kd in series [1] was no less than 10 µM. The yeast surface expression in series [2] stood at 0.391.
The matching figures for chain 1 S30D W36V: no less than 10 µM and 0.766.
The matching figures for chain 1 S30D W36R: no less than 10 µM and 2.14.
For the variant chain 1 S30C W36E, in series [1], the dissociation constant Kd was no less than 10 µM. In addition, the yeast surface expression in series [2] stood at 0.214.
As for chain 1 S30C W36Y, in series [1], the Kd stood at 0.0434 µM. Moreover, in series [2], the yeast surface expression was 0.691.
Turning to chain 1 S30C W36G, the Kd in series [1] came to 0.021 µM. Also, the yeast surface expression in series [2] came out at 0.208.
As for chain 1 S30T V37P, the Kd in series [1] is 0.0592 µM.
chain 1 S30T V37C: the Kd in series [1] was determined as 0.000454 µM. Also, in series [2], the yeast surface expression was determined as 0.826.
For the variant chain 1 S30T V37W, the dissociation constant Kd in series [1] was no less than 10 µM. The yeast surface expression in series [2] amounted to 0.671.
Consider chain 1 S30M N35M, for which the dissociation constant Kd in series [1] was no less than 10 µM. Also, in series [2], the yeast surface expression was 0.654.
For the variant chain 1 S30P V37Y, the dissociation constant Kd in series [1] stood at 0.0729 µM. In series [2], the yeast surface expression is 1.25.
The matching figures for chain 1 S30P V37S: 0.000939 µM and 0.74.
The matching figures for chain 1 N35D W36V: no less than 10 µM and 0.668.
Regarding chain 1 S30Q V37E, the equilibrium dissociation constant (Kd) in series [1] is no less than 10 µM. The yeast surface expression in series [2] amounted to 0.892.
The matching figures for chain 1 S30L D31L: no less than 10 µM and 0.0981.
Take chain 1 S30A N35Y: the Kd in series [1] is no less than 10 µM. The yeast surface expression in series [2] came to 0.655.
